Test results from the Immune Epitope Database (IEDB).

What was measured:
[1] = biological target: HLA-A*02:01; test: IEDB peptide-MHC binding, purified MHC/direct/fluorescence; filed as Kd, often an IC50 or EC50 that approximates it; ≥ and ≤ were set here for values at or beyond the usual limits of such assays
[2] = biological target: HLA-A*69:01; test: as above
[3] = biological target: HLA-A*26:01; test: IEDB peptide-MHC binding, purified MHC/competitive/radioactivity; filed as Kd, often an IC50 or EC50 that approximates it; ≥ and ≤ were set here for values at or beyond the usual limits of such assays
[4] = biological target: HLA-B*44:02; test: as above
[5] = biological target: HLA-B*44:03; test: as above
[6] = biological target: HLA-B*07:02; test: IEDB peptide-MHC binding, purified MHC/direct/fluorescence; filed as Kd, often an IC50 or EC50 that approximates it; ≥ and ≤ were set here for values at or beyond the usual limits of such assays
[7] = biological target: HLA-A*02:01; test: IEDB peptide-MHC binding, purified MHC/competitive/fluorescence; ≥ and ≤ were set here for values at or beyond the usual limits of such assays
[8] = biological target: HLA-B*15:01; test: IEDB peptide-MHC binding, purified MHC/direct/fluorescence; filed as Kd, often an IC50 or EC50 that approximates it; ≥ and ≤ were set here for values at or beyond the usual limits of such assays
[9] = biological target: HLA-B*40:01; test: as above; details: source organism: Rickettsia prowazekii
[10] = biological target: HLA-B*58:01; test: as above; details: source organism: Rickettsia prowazekii
[11] = biological target: HLA-A*24:02; test: IEDB peptide-MHC binding, purified MHC/competitive/radioactivity; filed as Kd, often an IC50 or EC50 that approximates it; ≥ and ≤ were set here for values at or beyond the usual limits of such assays; details: source organism: Dengue virus 2 Jamaica/1409/1983
[12] = biological target: HLA-A*30:01; test: as above; details: source organism: Dengue virus 4 Philippines/H241/1956
[13] = biological target: HLA-A*03:01; test: as above; details: source organism: Dengue virus 4 Philippines/H241/1956
[14] = biological target: HLA-A*11:01; test: as above; details: source organism: Dengue virus 4 Philippines/H241/1956
[15] = biological target: HLA-A*01:01; test: IEDB peptide-MHC binding, purified MHC/direct/fluorescence; filed as Kd, often an IC50 or EC50 that approximates it; ≥ and ≤ were set here for values at or beyond the usual limits of such assays; details: source organism: Homo sapiens
[16] = biological target: HLA-A*01:01; test: IEDB peptide-MHC binding, purified MHC/competitive/radioactivity; filed as Kd, often an IC50 or EC50 that approximates it; ≥ and ≤ were set here for values at or beyond the usual limits of such assays; details: source organism: Dengue virus 2 Jamaica/1409/1983
[17] = biological target: HLA-A*02:01; test: IEDB peptide-MHC binding, purified MHC/competitive/fluorescence; filed as Kd, often an IC50 or EC50 that approximates it; ≥ and ≤ were set here for values at or beyond the usual limits of such assays; details: source organism: Vaccinia virus Copenhagen
[18] = source organism: Mycobacterium tuberculosis
[19] = source organism: Dengue virus 2 Thailand/NGS-C/1944
[20] = source organism: Cryptosporidium parvum
[21] = source organism: Salmonella enterica subsp. enterica serovar Typhimurium
[22] = source organism: Dengue virus 3 Martinique/1243/1999
[23] = source organism: Dengue virus 2 Jamaica/1409/1983
[24] = source organism: Orthohantavirus hantanense

## EMFGGTPAV
[1]; [18]
  Kd: 2.1 nM

## LLPGVAHSI
[1]; source organism: Amur virus
  Kd: 4.2 nM
[2]; source organism: Amur virus
  Kd: ≥ 20000 nM

## ELIDGISLG
[3]; source organism: Dengue virus 4 Dominica/814669/1981
  Kd: 472 nM

## NEMVLLQMEN
[4]; [19]
  Kd: 512 nM
[5]; [19]
  Kd: 1440 nM

## DPNPQEVVL
[6]; source organism: Human immunodeficiency virus 1
  Kd: ≥ 30700 nM

## LRFANPLSN
[7]; source organism: Vaccinia virus
  IC50: ≥ 164000 nM

## GQFGSGWTW
[8]; source organism: Rickettsia prowazekii
  Kd: 138 nM
[9]
  Kd: 2870 nM
[10]
  Kd: 168 nM

## SLTKLFSYG
[7]; source organism: Variola virus
  IC50: 8920 nM

## LYAVATTFV
[11]
  Kd: 66.4 nM

## GGSLVRCPLS
[12]
  Kd: 2430 nM

## VLFDLDEDD
[7]; source organism: Zaire ebolavirus
  IC50: 3740 nM

## RNRDQSNAL
[6]; [18]
  Kd: 112 nM

## RTEAKSALK
[13]
  Kd: 87.6 nM
[14]
  Kd: 177 nM
[12]
  Kd: 476 nM

## KLIQIEKVL
[1]; [20]
  Kd: 3250 nM
[2]; [20]
  Kd: ≥ 20000 nM

## WLKGNISPV
[1]; [21]
  Kd: 20.5 nM
[2]; [21]
  Kd: 536 nM
[6]; [21]
  Kd: 3110 nM
[8]; [21]
  Kd: 795 nM

## MENLLWKQI
[4]; [22]
  Kd: 6.79 nM
[5]; [22]
  Kd: 93.4 nM

## ETEQPTLDY
[15]
  Kd: 16.3 nM
[2]; source organism: Homo sapiens
  Kd: 2890 nM

## EAEPPFGDSY
[16]
  Kd: 1770 nM
[3]; [23]
  Kd: 1300 nM

## GLQADAPHL
[1]; [24]
  Kd: 104 nM
[2]; [24]
  Kd: ≥ 20000 nM

## EIVNLLDNKV
[17]
  Kd: ≥ 20000 nM

## DVRNDMISY
[3]; source organism: Dengue virus 4 Philippines/H241/1956
  Kd: 431 nM

## ETLETLLLLT
[3]; [23]
  Kd: 17400 nM
